# Measurements: patent US10081667B2, “Composition and method for therapeutic agent delivery during pregnancy” (University of Mississippi Medical Center, priority 2013, dated 2018)
# Assays:
# NF-κB = experiment: In vitro NF-κB activation assay: nuclear localization of NF-κB in TNFα-stimulated HUVECs; assay type: cell-based, human; settings: 20 μM pretreatment 24 h, TNFα 1 h
# Procedure: FIG. 14 includes images and a bar graph illustrating inhibition of NF-κB activation with an ELP-delivered p50 peptide. FIG. 14A. Localization of NF-κB in HUVEC cells before and after TNFα stimulation. HUVECs were treated with SynB1-ELP control or SynB1-ELP-p50 (20 μM) for 24 h. Cells were then stimulated for 1 h with TNFα, and NF-κB localization was determined by immunostaining for the p65 subunit (green) and for nuclei with DAPI (blue). FIG. 14B. The nuclear cytoplasmic ratio of NF-κB staining was determined under each treatment condition. Data represent the mean of 30-60 cells per treatment and are averaged over three experiments.
# This investigation has developed an ELP-fused peptide inhibitor of activated NF-κB. NF-κB activation upon extracellular signaling is mediated by phosphorylation and release of the natural inhibitor I-κB from the NF-κB p50/p65 heterodimer. I-κB release exposes a nuclear localization sequence (NLS) on the p50 subunit of NF-κB, and once exposed, this NLS mediates nuclear import of NF-κB. Once inside the nucleus, NF-κB binds to response elements on its target genes and regulates gene expression. […] Stimulation of cultured HUVECs with TNF-α leads to rapid activation of the NF-κB pathway, and this can be detected by monitoring nuclear localization of NF-κB (FIG. 14A, left panel).
# endothelin-1 = experiment: Endothelin-1 release by HUVECs, ELISA; assay type: cell-based, human
# Procedure: FIG. 15 includes a graph illustrating the inhibition of endothelin release by SynB1-ELP-p50. HUVECs growing in 24-well plates were treated with 50 μM SynB1-ELP or SynB1-ELP-p50 overnight, then 50 or 100 ng/mL […]. Cells were incubated overnight, and culture media was collected and frozen.
# TNFα stimulation also leads to the secretion of the vasoactive peptide endothelin-1 by HUVECs. This endothelin release contributes to the hypertension associated with the pro-inflammatory environment in preeclampsia.
# [1] = rat, in vivo
# [2] = ELP-VEGF pharmacokinetics and biodistribution in mice after bolus IV; assay type: in vivo, C57/B16 mice
# Procedure: FIG. 12 includes graphs showing ELP-VEGF pharmacokinetics and biodistribution. FIG. 12A. Fluorescently labeled free VEGF or ELP-VEGF were administered by IV injection to C57/B16 mice. Plasma levels were determined by direct fluorescence quantitation and fit to a two-compartment pharmacokinetic model. FIG. 12B. […] FIG. 12D.
# In addition to examining the ELP-VEGF activity in vitro, the pharmacokinetics (PK) and biodistribution of ELP-VEGF in comparison to free VEGF121 is also determined. Both free VEGF121 and ELP-VEGF were fluorescently labeled, and their PK and biodistribution were determined in mice after bolus intravenous administration. […] This is consistent with other reports of approximately a 30 minute half-life for recombinant VEGF in humans. ELP-VEGF cleared more slowly than free VEGF121 (FIG. 12A). […] Four hours after the infusion, the biodistribution was determined by ex vivo whole organ fluorescence imaging.
# [3] = system: rat model of preeclampsia; experiment: Blood pressure in the reduced uterine perfusion (RUPP) rat model of preeclampsia; assay type: in vivo, rats; settings: 1 mg/kg/day IP minipump GD14 to GD19, measured GD19
# Procedure: FIG. 13 is a bar graph showing effect of ELP-VEGF on blood pressure in the reduced uterine perfusion model. A study was conducted in pregnant rats subjected to surgical reduction of uterine blood flow (RUPP) on gestational day 14 (GD14). ELP-VEGF or saline control was administered by continuous infusion via IP minipump from GD14 to GD19 at a dose of 1 mg/kg/day. Data represent the mean arterial pressure as assessed by indwelling carotid catheters on GD19. Individual animal data are indicated by the points.
# Whether ELP-VEGF was effective for lowering blood pressure in a rat model of preeclampsia is texted next. Pregnant rats at gestational day 14 (GD14) were subjected to surgery to reduce ale blood flow to the placentas. It has previously been shown that this model, achieved by partially restricting the ovarian arteries and the dorsal aorta, results in a preeclampsia-like syndrome in the rat. The effects mirror human preeclampsia in that the rats develop hypertension, proteinuria, reduced renal function, fetal growth restriction, and some fetal loss. […] The hypertension associated with this model can be seen in FIG. 13, where the mean arterial pressure increased from about 105 mmHg in normal pregnant rats on GD19 to over 120 mmHg in the preeclampsia model as measured by a pressure transducer inserted into a carotid arterial catheter.
# [4] = system: human umbilical vein endothelial cells (HUVECs); experiment: HUVEC proliferation, MTS cell proliferation assay; assay type: cell-based; settings: 72 h exposure
# Procedure: FIG. 9 is a bar graph showing ELP-VEGF stimulation of HUVEC proliferation. HUVEC cell proliferation was determined after 72 h exposure to ELP, VEGF, or ELP-VEGF at the indicated concentrations using the MTS cell proliferation assay.
# Proliferation of human umbilical vein endothelial cells (HUVECs) is stimulated when the cell are exposed to VEGF.
Molecule,nuclear translocation of NF-κB after TNF-α stimulation (NF-κB),endothelin release from unstimulated HUVECs (endothelin-1; 50 μM),endothelin release from TNFα-stimulated HUVECs (endothelin-1; 50 μM pre-treatment overnight),entry into fetal circulation / pups [1],terminal half-life (in words) [1],fluorescence in the urine at the end of the experiment [2],plasma clearance rate relative to free VEGF121 ([2]; IV),kidney deposition relative to free VEGF121 ([2]; four hours after the infusion),"organ accumulation, ex vivo whole organ fluorescence imaging ([2]; four hours after the infusion)",mean arterial pressure [3],stimulation of HUVEC proliferation [4]
"SynB1-ELP-p50: SynB1 peptide fused to N-terminus of ELP (SEQ ID NO: 4), p50 peptide at the C-terminus; SEQ ID NO: 15 (protein, synthetic SynB1-ELP-p50 sequence) MRGGRLSYSRRRFSTSTGRGCGPGVGVPGAGVPGGGVPGAGVPGGGVPGAGVPGGGVPGAGVPGGGVPGAGVPGGGVPGAGVPGGGVPGAGVPGGGVPGAGVPGVGVPGAGVPGGGVPGAGVPGGGVPGAGVPGGGVPGAGVPGGGVPGAGVPGGGVPGAGVPGGGVPGAGVPGGGVPGAGVPGVGVPGAGVPGGGVPGAGVPGGGVPGAGVPGGGVPGAGVPGGGVPGAGVPGGGVPGAGVPGGGVPGAGVPGGGVPGAGVPGVGVPGAGVPGGGVPGAGVPGGGVPGAGVPGGGVPGAGVPGGGVPGAGVPGGGVPGAGVPGGGVPGAGVPGGGVPGAGVPGVGVPGAGVPGGGVPGAGVPGGGVPGAGVPGGGVPGAGVPGGGVPGAGVPGGGVPGAGVPGGGVPGAGVPGGGVPGAGVPGVGVPGAGVPGGGVPGAGVPGGGVPGAGVPGGGVPGAGVPGGGVPGAGVPGGGVPGAGVPGGGVPGAGVPGGGVPGAGVPGVGVPGAGVPGGGVPGAGVPGGGVPGAGVPGGGVPGAGVPGGGVPGAGVPGGGVPGAGVPGGGVPGAGVPGGGVPGAGVPGVGVPGAGVPGGGVPGAGVPGGGVPGAGVPGGGVPGAGVPGGGVPGAGVPGGGVPGAGVPGGGVPGAGVPGGGVPGAGVPGVGVPGAGVPGGGVPGAGVPGGGVPGAGVPGGGVPGAGVPGGGVPGAGVPGGGVPGAGVPGGGVPGAGVPGGGVPGAGVPGVGVPGAGVPGGGVPGAGVPGGGVPGAGVPGGGVPGAGVPGGGVPGAGVPGGGVPGAGVPGGGVPGAGVPGGGVPGAGVPGWPGSGGVQRKRQKLMP",completely blocks this nuclear translocation of NF-κB,decreases the endothelin release from unstimulated HUVECs,the endothelin release is completely blocked,effectively prevents the peptide from entering the fetal circulation,greater than two hours,–,–,–,–,–,–
"ELP-VEGF: ELP sequence (SEQ ID NO: 4) fused to a C-terminal VEGF121 sequence, SEQ ID NO: 14; 73 kDa protein (protein, synthetic ELP-VEGF sequences, 73 kDa protein) MSKGPGVGVPGAGVPGGGVPGAGVPGGGVPGAGVPGGGVPGAGVPGGGVPGAGVPGGGVPGAGVPGGGVPGAGVPGGGVPGAGVPGVGVPGAGVPGGGVPGAGVPGGGVPGAGVPGGGVPGAGVPGGGVPGAGVPGGGVPGAGVPGGGVPGAGVPGGGVPGAGVPGVGVPGAGVPGGGVPGAGVPGGGVPGAGVPGGGVPGAGVPGGGVPGAGVPGGGVPGAGVPGGGVPGAGVPGGGVPGAGVPGVGVPGAGVPGGGVPGAGVPGGGVPGAGVPGGGVPGAGVPGGGVPGAGVPGGGVPGAGVPGGGVPGAGVPGGGVPGAGVPGVGVPGAGVPGGGVPGAGVPGGGVPGAGVPGGGVPGAGVPGGGVPGAGVPGGGVPGAGVPGGGVPGAGVPGGGVPGAGVPGVGVPGAGVPGGGVPGAGVPGGGVPGAGVPGGGVPGAGVPGGGVPGAGVPGGGVPGAGVPGGGVPGAGVPGGGVPGAGVPGVGVPGAGVPGGGVPGAGVPGGGVPGAGVPGGGVPGAGVPGGGVPGAGVPGGGVPGAGVPGGGVPGAGVPGGGVPGAGVPGVGVPGAGVPGGGVPGAGVPGGGVPGAGVPGGGVPGAGVPGGGVPGAGVPGGGVPGAGVPGGGVPGAGVPGGGVPGAGVPGVGVPGAGVPGGGVPGAGVPGGGVPGAGVPGGGVPGAGVPGGGVPGAGVPGGGVPGAGVPGGGVPGAGVPGGGVPGAGVPGVGVPGAGVPGGGVPGAGVPGGGVPGAGVPGGGVPGAGVPGGGVPGAGVPGGGVPGAGVPGGGVPGAGVPGGGVPGAGVPGWPGSGAPMAEGGGQNHHEVVKFMDVYQRSYCHPIETLVDIFQEYPDEIEYIFKPSCVPLMRCGGCCNDEGLECVPTEESNITMQIMRIKPHQGQHIGEMSFLQHNKCECRPKKDRARQEKCDKPRR",–,–,–,–,–,less fluorescence detectable in the urine,about half the rate of free VEGF121,significantly lower than for free VEGF121,accumulated more highly in the spleen and liver than did free VEGF121,effectively lowered the blood pressure of the preeclampsia-induced rats to near normal levels,stimulated HUVEC proliferation with equal potency
